US20070258988A1

Legend:
[1] = biological target: hMOR-1Y (human) (UniProt P35372); assay: competition against [3H]DAMGO (~1 nM), membranes of stable CHO transfectants
[2] = biological target: hMOR-1B2 (human) (UniProt P35372); assay: as above
[3] = biological target: hMOR-1A (human); assay: as above
[4] = biological target: hMOR-1B3 (human) (UniProt P35372); assay: as above
[5] = biological target: hMOR-1B1 (human) (UniProt P35372); assay: as above
[6] = biological target: hMOR-1B5 (human) (UniProt P35372); assay: as above
[7] = biological target: hMOR-1 (human) (UniProt P35372); assay: as above
[8] = biological target: hMOR-1 (exons 1-3) (human) (UniProt P35372); assay: as above
[9] = biological target: hMOR-1B4 (human) (UniProt P35372); assay: as above
[10] = biological target: rMOR-1 (rat) (UniProt P33535); assay: as above
[11] = biological target: rMOR-1D (rat); assay: [3H]DAMGO saturation binding, membranes of stable CHO transfectants
[12] = biological target: rMOR-1C1 (rat); assay: as above
[13] = biological target: rMOR-1A (rat); assay: as above
[14] = biological target: rMOR-1 (no Exon 4) (rat) (UniProt P33535); assay: as above
[15] = biological target: rMOR-1 (rat) (UniProt P33535); assay: as above
[16] = biological target: rMOR-1D (rat); assay: competition against [3H]DAMGO (~1 nM), membranes of stable CHO transfectants
[17] = biological target: rMOR-1C1 (rat); assay: as above
[18] = biological target: rMOR-1A (rat); assay: as above
[19] = biological target: hMOR-1Y (human) (UniProt P35372); assay: cell-based or functional assay
[20] = biological target: rMOR-1D (rat); assay: cell-based or functional assay
[21] = biological target: hMOR-1B2 (human) (UniProt P35372); assay: cell-based or functional assay
[22] = biological target: rMOR-1C1 (rat); assay: cell-based or functional assay
[23] = biological target: rMOR-1A (rat); assay: cell-based or functional assay
[24] = biological target: hMOR-1A (human); assay: cell-based or functional assay
[25] = biological target: hMOR-1B3 (human) (UniProt P35372); assay: cell-based or functional assay
[26] = biological target: rMOR-1 (no Exon 4) (rat) (UniProt P33535); assay: cell-based or functional assay
[27] = biological target: hMOR-1B1 (human) (UniProt P35372); assay: cell-based or functional assay
[28] = biological target: hMOR-1B5 (human) (UniProt P35372); assay: cell-based or functional assay
[29] = biological target: hMOR-1 (human) (UniProt P35372); assay: cell-based or functional assay
[30] = biological target: rMOR-1 (rat) (UniProt P33535); assay: cell-based or functional assay
[31] = biological target: hMOR-1 (exons 1-3) (human) (UniProt P35372); assay: cell-based or functional assay
[32] = biological target: hMOR-1B4 (human) (UniProt P35372); assay: cell-based or functional assay
[33] = biological target: rMOR-1 (no Exon 4) (rat) (UniProt P33535); assay: competition against [3H]DAMGO (~1 nM), membranes of stable CHO transfectants

| Substance | Ki [1] [nM] | Ki [2] [nM] | Ki [3] [nM] | Ki [4] [nM] | Ki [5] [nM] | Ki [7] [nM] | Ki [9] [nM] | Ki [10] [nM] | Ki [16] [nM] | Ki [17] [nM] | Ki [18] [nM] | EC50 (nM), stimulation of [35S]GTPγS binding [20] [nM] | Max Stim (%) [20] [%] | EC50 (nM), stimulation of [35S]GTPγS binding [22] [nM] | Max Stim (%) [22] [%] | EC50 (nM), stimulation of [35S]GTPγS binding [23] [nM] | Max Stim (%) [23] [%] | EC50 (nM), stimulation of [35S]GTPγS binding [26] [nM] | Max Stim (%) [26] [%] | Max Stim (%) [30] [%] | also measured |
| --- | --- | --- | --- | --- | --- | --- | --- | --- | --- | --- | --- | --- | --- | --- | --- | --- | --- | --- | --- | --- | --- |
| [D-Pen^2, D-Pen^5]enkephalin (DPDPE) (peptide) | > 500 | > 500 | > 500 | > 500 | > 500 | > 500 | > 500 |  |  |  |  |  |  |  |  |  |  |  |  |  | Ki [6]: > 500 nM; Ki [8]: > 500 nM |
| DADLE (peptide) |  | 10 |  |  |  |  |  |  |  |  |  |  |  |  |  |  |  |  |  |  |  |
| Endomorphin 2 (peptide) |  |  |  |  |  |  |  | 8 |  |  |  |  |  |  |  |  |  |  |  |  |  |
| [D-Ala^2,MePhe^4,Gly(ol)^5]enkephalin (DAMGO) (peptide) |  |  |  |  | 1.2 | 2 |  | 3.3 | 4.7 | 4.5 | 6 | 125 | 113 | 4 | 233 | 13 | 176 | 86 | 196 | 233 | Kd [11]: 4.7 nM; Kd [12]: 4.8 nM; Kd [13]: 2.5 nM; Kd [14]: 4.5 nM; Kd [15]: 2.8 nM; Max Inhib (%) [19]: 91%; Max Inhib (%) [21]: 90%; Max Inhib (%) [24]: 82%; Max Inhib (%) [25]: 73%; Max Inhib (%) [27]: 57%; Max Inhib (%) [28]: 83%; Max Inhib (%) [29]: 76%; EC50 (nM), stimulation of [35S]GTPγS binding [30]: 12 nM; Max Inhib (%) [31]: 74%; Max Inhib (%) [32]: 65% |
| Endomorphin 1 (peptide) |  |  |  |  |  |  |  |  |  |  |  | 100 | 145 |  | 377 |  | 205 |  | 189 | 320 |  |
| [D-Ser^2, Leu^5]enkephalin-Thr^6 (DSLET) (peptide) | 15.4 | 34.4 | 19.7 | 16.4 | 13.9 | 19.1 | 22.3 | 30.9 | 27.3 | 45 | 44.5 | 540 | 187 | 253 | 312 | 127 | 206 | 690 | 226 | 251 | Ki [33]: 24.2 nM; EC50 (nM), stimulation of [35S]GTPγS binding [30]: 76 nM |
